Results as given in patent publication US20250313635A1, “ANTI-INTEGRIN ANTIBODIES AND USES THEREOF” (Merck Sharp & Dohme LLC, priority 2022, published 2025).
Blank lines part the entries; values can stand above or below the substance they belong to.

Legend:
[1] = target: mouse fibronectin (Abcam ab92784) (mouse) (UniProt P11276); experiment: AlphaLISA integrin-ligand binding, ligand at 1.0 nM
[2] = target: mouse Vitronectin (Abcam ab92727) (mouse) (UniProt P29788); experiment: AlphaLISA integrin-ligand binding, ligand at 2.5 nM
Sequence of mouse Vitronectin (Abcam ab92727) (mouse) (P29788 20-478 limits assumed): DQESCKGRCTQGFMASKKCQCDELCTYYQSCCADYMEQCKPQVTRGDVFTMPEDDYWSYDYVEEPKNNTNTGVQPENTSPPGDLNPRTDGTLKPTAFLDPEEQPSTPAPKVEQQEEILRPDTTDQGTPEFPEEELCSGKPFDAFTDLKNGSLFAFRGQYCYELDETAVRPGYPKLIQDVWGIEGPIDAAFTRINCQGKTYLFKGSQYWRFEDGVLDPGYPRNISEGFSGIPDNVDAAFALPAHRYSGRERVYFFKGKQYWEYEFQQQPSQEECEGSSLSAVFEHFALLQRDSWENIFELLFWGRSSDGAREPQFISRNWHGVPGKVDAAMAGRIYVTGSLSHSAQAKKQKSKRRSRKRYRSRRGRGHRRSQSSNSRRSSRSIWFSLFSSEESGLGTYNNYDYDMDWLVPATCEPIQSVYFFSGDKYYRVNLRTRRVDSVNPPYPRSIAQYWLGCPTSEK

[3] = target: human Vitronectin-GST tagged (EMD Millipore 08-126) (human) (UniProt P04004); experiment: AlphaLISA integrin-ligand binding, ligand at 1.0 nM
[4] = target: mouse LAP-6His (Chem partner) (mouse) (UniProt P04202); experiment: AlphaLISA integrin-ligand binding, ligand at 2.5 nM
Sequence of mouse LAP-6His (Chem partner) (mouse) (P04202 30-278 limits assumed): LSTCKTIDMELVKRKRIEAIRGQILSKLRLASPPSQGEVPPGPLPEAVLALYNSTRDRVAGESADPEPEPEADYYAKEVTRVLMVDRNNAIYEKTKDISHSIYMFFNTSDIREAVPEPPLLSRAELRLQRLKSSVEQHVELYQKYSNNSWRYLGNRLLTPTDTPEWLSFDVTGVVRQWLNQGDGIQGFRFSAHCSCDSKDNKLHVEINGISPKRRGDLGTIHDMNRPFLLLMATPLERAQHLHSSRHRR

[5] = target: mouse fibronectin (Abcam ab92784) (mouse) (UniProt P11276); experiment: as above
[6] = target: human LAP (R&D system 246-LP) (human) (UniProt P01137); experiment: AlphaLISA integrin-ligand binding, ligand at 3.0 nM
[7] = target: human LAP (R&D system 246-LP) (human) (UniProt P01137); experiment: AlphaLISA integrin-ligand binding, ligand at 0.5 nM
[8] = target: human Fibronectin (R&D Systems 1918-FN) (human) (UniProt P02751); experiment: AlphaLISA integrin-ligand binding, ligand at 1.0 nM
Sequence of human Fibronectin (R&D Systems 1918-FN) (human) (P02751 other isoform, or with tags, fused parts or gaps limits assumed): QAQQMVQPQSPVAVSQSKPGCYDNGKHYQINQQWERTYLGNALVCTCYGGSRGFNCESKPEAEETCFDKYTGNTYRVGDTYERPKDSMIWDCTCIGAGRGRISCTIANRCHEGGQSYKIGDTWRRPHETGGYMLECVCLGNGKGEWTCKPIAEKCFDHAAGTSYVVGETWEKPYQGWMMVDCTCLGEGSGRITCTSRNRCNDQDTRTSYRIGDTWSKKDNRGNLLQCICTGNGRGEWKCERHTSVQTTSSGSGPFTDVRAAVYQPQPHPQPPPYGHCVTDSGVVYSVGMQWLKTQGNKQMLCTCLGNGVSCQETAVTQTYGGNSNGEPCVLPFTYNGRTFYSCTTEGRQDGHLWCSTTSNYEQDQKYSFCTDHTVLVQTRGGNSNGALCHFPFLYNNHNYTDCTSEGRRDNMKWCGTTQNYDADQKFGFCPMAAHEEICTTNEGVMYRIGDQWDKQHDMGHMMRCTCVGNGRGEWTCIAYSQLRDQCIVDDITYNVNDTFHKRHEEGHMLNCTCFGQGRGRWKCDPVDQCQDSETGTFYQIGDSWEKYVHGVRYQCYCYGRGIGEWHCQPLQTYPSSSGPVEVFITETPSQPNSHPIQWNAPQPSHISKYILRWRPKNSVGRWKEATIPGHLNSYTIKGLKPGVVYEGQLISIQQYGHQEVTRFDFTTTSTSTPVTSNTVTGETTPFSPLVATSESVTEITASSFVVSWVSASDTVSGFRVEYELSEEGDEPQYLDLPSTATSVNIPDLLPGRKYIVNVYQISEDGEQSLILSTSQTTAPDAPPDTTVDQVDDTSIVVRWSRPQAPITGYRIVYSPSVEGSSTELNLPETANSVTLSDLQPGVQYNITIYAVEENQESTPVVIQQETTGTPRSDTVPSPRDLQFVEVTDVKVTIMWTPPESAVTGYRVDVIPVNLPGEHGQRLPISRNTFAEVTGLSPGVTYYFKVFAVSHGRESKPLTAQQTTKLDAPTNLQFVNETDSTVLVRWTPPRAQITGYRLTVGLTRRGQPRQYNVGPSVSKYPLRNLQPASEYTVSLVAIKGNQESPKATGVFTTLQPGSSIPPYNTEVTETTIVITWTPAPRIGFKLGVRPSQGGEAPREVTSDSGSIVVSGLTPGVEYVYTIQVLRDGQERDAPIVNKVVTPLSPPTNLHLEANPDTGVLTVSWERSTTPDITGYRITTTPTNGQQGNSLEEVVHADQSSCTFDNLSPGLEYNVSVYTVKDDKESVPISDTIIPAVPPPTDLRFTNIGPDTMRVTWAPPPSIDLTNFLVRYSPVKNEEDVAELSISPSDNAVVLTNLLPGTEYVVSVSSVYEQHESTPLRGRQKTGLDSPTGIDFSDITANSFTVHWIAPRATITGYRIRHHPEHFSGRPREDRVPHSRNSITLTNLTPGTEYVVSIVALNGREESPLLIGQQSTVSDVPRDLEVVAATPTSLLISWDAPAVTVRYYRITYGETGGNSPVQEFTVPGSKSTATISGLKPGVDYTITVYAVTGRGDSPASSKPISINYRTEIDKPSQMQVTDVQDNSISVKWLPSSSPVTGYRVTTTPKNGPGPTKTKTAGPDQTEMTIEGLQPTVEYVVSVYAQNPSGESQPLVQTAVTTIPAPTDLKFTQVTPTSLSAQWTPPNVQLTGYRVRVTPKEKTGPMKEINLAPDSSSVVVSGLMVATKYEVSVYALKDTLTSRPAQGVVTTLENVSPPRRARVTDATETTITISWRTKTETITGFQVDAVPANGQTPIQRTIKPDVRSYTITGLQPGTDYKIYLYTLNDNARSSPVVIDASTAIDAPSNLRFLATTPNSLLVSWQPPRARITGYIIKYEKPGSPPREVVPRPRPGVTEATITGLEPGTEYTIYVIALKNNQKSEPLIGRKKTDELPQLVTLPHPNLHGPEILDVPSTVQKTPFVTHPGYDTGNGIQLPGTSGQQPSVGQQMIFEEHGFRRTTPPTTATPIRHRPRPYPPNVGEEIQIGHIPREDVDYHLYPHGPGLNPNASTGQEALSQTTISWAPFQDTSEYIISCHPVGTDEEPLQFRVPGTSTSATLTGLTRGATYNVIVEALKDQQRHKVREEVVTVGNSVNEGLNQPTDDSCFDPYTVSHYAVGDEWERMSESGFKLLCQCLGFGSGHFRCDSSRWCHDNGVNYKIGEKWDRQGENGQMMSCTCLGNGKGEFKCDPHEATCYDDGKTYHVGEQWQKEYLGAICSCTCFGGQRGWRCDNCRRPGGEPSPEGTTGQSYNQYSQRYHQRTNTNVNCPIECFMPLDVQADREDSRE

[9] = target: human Vitronectin-GST tagged (EMD Millipore 08-126) (human) (UniProt P04004); experiment: AlphaLISA integrin-ligand binding, ligand at 10.0 nM
[10] = target: mouse Vitronectin (Abcam ab92727) (mouse) (UniProt P29788); experiment: AlphaLISA integrin-ligand binding, ligand at 5.0 nM

Integrin EC80 (batch dependent) [1]: 4.3 nM
Substance: recombinant mouse αvβ1 integrin extracellular domains (from UniProt P43406 1-988; P09055 1-728) (receptor)

Integrin EC80 (batch dependent) [6]: 1 nM
Substance: recombinant human αvβ8 integrin extracellular domains (from UniProt P06756 1-992; P26012 1-684) (receptor)

Integrin EC80 (batch dependent) [9]: 3 nM
Substance: recombinant human αvβ3 integrin extracellular domains (from UniProt P06756 1-992; P05106 1-718) (receptor)

Continued, substance first:

Substance: recombinant mouse αvβ5 integrin extracellular domains (from UniProt P43406 1-988; O70309 1-719) (receptor)
Integrin EC80 (batch dependent) [2]: 0.6 nM

Substance: recombinant human αvβ5 integrin extracellular domains (from UniProt P06756 1-992; P18084 1-719) (receptor)
Integrin EC80 (batch dependent) [3]: 2.5 nM

Substance: recombinant mouse αvβ8 integrin extracellular domains (from UniProt P43406 1-988; Q0VBD0 1-679) (receptor)
Integrin EC80 (batch dependent) [4]: 1 nM

Substance: recombinant mouse αvβ6 integrin extracellular domains (from UniProt P43406 1-988; Q9Z0T9 1-706) (receptor)
Integrin EC80 (batch dependent) [4]: 1.4 nM

Substance: recombinant mouse α5β1 integrin extracellular domains (from UniProt P11688 1-999; P09055 1-728) (receptor)
Integrin EC80 (batch dependent) [5]: 1 nM

Substance: recombinant human αvβ6 integrin extracellular domains (from UniProt P06756 1-992; P18564 1-709) (receptor)
Integrin EC80 (batch dependent) [7]: 0.1 nM

Substance: recombinant human αvβ1 integrin extracellular domains (from UniProt P06756 1-992; P05556 1-728) (receptor)
Integrin EC80 (batch dependent) [8]: 1.4 nM

Substance: recombinant mouse αvβ3 integrin extracellular domains (from UniProt P43406 1-988; O54890 1-717) (receptor)
Integrin EC80 (batch dependent) [10]: 3 nM
